In article PMC12080921 (2025) one finds Kd and koff data, which are given here for two molecules.

B1: PmSLP-1^15-318 (domain or fragment)
chain: MEKRTVTIPQAQKVAEKPALTIQTVVTSPTTPIKAPSLAPTIDTAPKQNPVPTAQITATLPAEPVKVPVLIPEVNKTLLETSTNPVKDSYNKDAVFTYELIANPDADYSDQKLILKKEISYIKLNLGINQDNKNAPSYIFNLLDDNVYYGFYRDTQDMNRIENKYTYAFKKEAENFDNLQKFNATYEGQFWFSSIDTPNVPTVARAFLTYNNGRVDGEILAKHWNEKLFQITGFDNNPRKVEIFPTVEYLPNSGTRLTKGATSPHRFQMDLHFINSTNGEKNKYLVGQGSTEQYWGVLGMEKKQELALVPR
B2: biotinylated bovine FI (enzyme)
chain 1: EDNFRKRGKSKAVKKSEAHHAPEASLSKETEASSEVKPTSTQDTSQKDFVDKKCLTEKHTHLSCNKVFCQPWQKCIDGTCLCKLPYQCPKNGTRVCSTNGKSYSTYCQQKSFECYRPEAKFLKSGACTGGGQFSVSLSNGKQDSEGIVAVKLADLDTKMFVCGDSWSITEANVACIDRGFQLGALDTHRRDPDPNSAECLHVRCRGLETSLAECTFTKGVHNSEGLAGVVCYTESAAPPKKDSFQCVNGKRIPQKKACDGVNDCVDKSDELCCKDCRGEGFLCKSGVCIPKQYKCNGELDCITGEDEVGCEETGHPEIKEAAEMLTADMDAERKFTKSFLPKLSCGVKNNMHI
chain 2: VVGGKPAKMGEFPWQMAIKEGDKIHCGGIYIGGCWILTAAHCVRISRMHRYQIWTSFTDWLRPGFQTVVHSVNRIIIHENYNGTTYQNDIALIEMKKRPNEKECVLSKSIPACVPWSPYLFQPNDKCIVSGWGREKDNQKVYSLRWGEVHLINNCSEFYPGRYFEKEMQCAGTDDGSIDACKGDSGGPLVCQDVNNVTYVWGVVSWGENCGKSEFPGVYTKVANYFDWISQHVGRSLISQHNI
modifications: biotin (EZ-link NHS-biotin; sites not stated) | biotin (EZ-link NHS-biotin; sites not stated)

In experiment [1] the target is B2. The experiment in a line: BLI; kinetic fit. On the technique in general: BLI is a label-free optical method that tracks binding on a fibre tip over time.
For experiment [2], the target named is B2. Nature of the experiment: BLI.
In experiment [3] the target is T1, PmSLP-1^95-318 SERp (Pasteurella multocida strain 36950). The experiment in a line: BLI; kinetic fit.
Experiment [4] addresses T1, PmSLP-1^95-318 SERp. Nature of the experiment: BLI.

Usually Kd stands for the constant that tells how readily two partners part at equilibrium. The koff is the rate constant with which the complex falls apart. B1 yielded a Kd in experiment [1] of 0.018 µM. In experiment [2], this molecule had a koff of 0.0059 s⁻¹.

B2 yielded a Kd in experiment [3] of 0.03 µM. The molecule further had a koff in experiment [4] of 0.008 s⁻¹.
